Data set [1] deals with the molecule itself. The data set can be described thus: SEC.
Data set [2] deals with the molecule itself. The data set can be described thus: SEC. The source holds these as a separate data set.
Data set [3] deals with the molecule itself. The data set can be described thus: AUC.

7 proteins from publication PMC1636413 (Nucleic Acids Research, 2006) can be followed below.

Values joined by “and” are separate entries in the source; they are usually repeats but may differ in a detail not shown here. Equal entries are not always repeated.

B1: MutS800^CF (cysteine-free truncated E.coli MutS, residues 1-800, N-terminal His6-tagged) (domain or fragment, UniProt P23909 1-800, looked up)
chain: MSAIENFDAHTPMMQQYLRLKAQHPEILLFYRMGDFYELFYDDAKRASQLLDISLTKRGASAGEPIPMAGIPYHAVENYLAKLVNQGESVAIAEQIGDPATSKGPVERKVVRIVTPGTISDEALLQERQDNLLAAIWQDSKGFGYATLDISSGRFRLSEPADRETMAAELQRTNPAELLYAEDFAEMSLIEGRRGLRRRPLWEFEIDTARQQLNLQFGTRDLVGFGVENAPRGLSAAGALLQYAKDTQRTTLPHIRSITMEREQDSIIMDAATRRNLEITQNLAGGAENTLASVLDSTVTPMGSRMLKRWLHMPVRDTRVLLERQQTIGALQDFTAGLQPVLRQVGDLERILARLALRTARPRDLARMRHAFQQLPELRAQLETVDSAPVQALREKMGEFAELRDLLERAIIDTPPVLVRDGGVIASGYNEELDEWRALADGATDYLERLEVRERERTGLDTLKVGFNAVHGYYIQISRGQSHLAPINYMRRQTLKNAERYIIPELKEYEDKVLTSKGKALALEKQLYEELFDLLLPHLEALQQSASALAELDVLVNLAERAYTLNYTSPTFIDKPGIRITEGRHPVVEQVLNEPFIANPLNLSPQRRMLIITGPNMGGKSTYMRQTALIALMAYIGSYVPAQKVEIGPIDRIFTRVGAADDLASGRSTFMVEMTETANILHNATEYSLVLMDEIGRGTSTYDGLSLAWAVAENLANKIKALTLFATHYFELTQLPEKMEGVANVHLDALEHGDTIAFMHSVQDGAASKSYGLAVAALAGVPKEVIKRARQKLRELESIS
On to B1, for which the stoichiometry N (usually the number of molecules, sites or subunits per partner or assembly) in data set [1] is 2.

B2: MutS^CF (cysteine-free full-length E.coli MutS, N-terminal His6-tagged) (natural protein, UniProt P23909 1-853, looked up)
chain: MSAIENFDAHTPMMQQYLRLKAQHPEILLFYRMGDFYELFYDDAKRASQLLDISLTKRGASAGEPIPMAGIPYHAVENYLAKLVNQGESVAIAEQIGDPATSKGPVERKVVRIVTPGTISDEALLQERQDNLLAAIWQDSKGFGYATLDISSGRFRLSEPADRETMAAELQRTNPAELLYAEDFAEMSLIEGRRGLRRRPLWEFEIDTARQQLNLQFGTRDLVGFGVENAPRGLSAAGALLQYAKDTQRTTLPHIRSITMEREQDSIIMDAATRRNLEITQNLAGGAENTLASVLDSTVTPMGSRMLKRWLHMPVRDTRVLLERQQTIGALQDFTAGLQPVLRQVGDLERILARLALRTARPRDLARMRHAFQQLPELRAQLETVDSAPVQALREKMGEFAELRDLLERAIIDTPPVLVRDGGVIASGYNEELDEWRALADGATDYLERLEVRERERTGLDTLKVGFNAVHGYYIQISRGQSHLAPINYMRRQTLKNAERYIIPELKEYEDKVLTSKGKALALEKQLYEELFDLLLPHLEALQQSASALAELDVLVNLAERAYTLNYTSPTFIDKPGIRITEGRHPVVEQVLNEPFIANPLNLSPQRRMLIITGPNMGGKSTYMRQTALIALMAYIGSYVPAQKVEIGPIDRIFTRVGAADDLASGRSTFMVEMTETANILHNATEYSLVLMDEIGRGTSTYDGLSLAWAVAENLANKIKALTLFATHYFELTQLPEKMEGVANVHLDALEHGDTIAFMHSVQDGAASKSYGLAVAALAGVPKEVIKRARQKLRELESISPNAAATQVDGTQMSLLSVPEETSPAVEALENLDPDSLTPRQALEWIYRLKSLV
As to B2, the “stoichiometry N” value in data set [1] is 4 and 2.

B3: MutS^CF/D835R (cysteine-free full-length E.coli MutS with D835R, N-terminal His6-tagged) (natural protein, UniProt P23909 1-853, looked up)
chain: MSAIENFDAHTPMMQQYLRLKAQHPEILLFYRMGDFYELFYDDAKRASQLLDISLTKRGASAGEPIPMAGIPYHAVENYLAKLVNQGESVAIAEQIGDPATSKGPVERKVVRIVTPGTISDEALLQERQDNLLAAIWQDSKGFGYATLDISSGRFRLSEPADRETMAAELQRTNPAELLYAEDFAEMSLIEGRRGLRRRPLWEFEIDTARQQLNLQFGTRDLVGFGVENAPRGLSAAGALLQYAKDTQRTTLPHIRSITMEREQDSIIMDAATRRNLEITQNLAGGAENTLASVLDSTVTPMGSRMLKRWLHMPVRDTRVLLERQQTIGALQDFTAGLQPVLRQVGDLERILARLALRTARPRDLARMRHAFQQLPELRAQLETVDSAPVQALREKMGEFAELRDLLERAIIDTPPVLVRDGGVIASGYNEELDEWRALADGATDYLERLEVRERERTGLDTLKVGFNAVHGYYIQISRGQSHLAPINYMRRQTLKNAERYIIPELKEYEDKVLTSKGKALALEKQLYEELFDLLLPHLEALQQSASALAELDVLVNLAERAYTLNYTSPTFIDKPGIRITEGRHPVVEQVLNEPFIANPLNLSPQRRMLIITGPNMGGKSTYMRQTALIALMAYIGSYVPAQKVEIGPIDRIFTRVGAADDLASGRSTFMVEMTETANILHNATEYSLVLMDEIGRGTSTYDGLSLAWAVAENLANKIKALTLFATHYFELTQLPEKMEGVANVHLDALEHGDTIAFMHSVQDGAASKSYGLAVAALAGVPKEVIKRARQKLRELESISPNAAATQVDGTQMSLLSVPEETSPAVEALENLDPRSLTPRQALEWIYRLKSLV
With B3, the “stoichiometry N” value in data set [1] stood at 2.

B4: MutS^wt (E.coli MutS, full-length, N-terminal His6-tagged) (natural protein, UniProt P23909 1-853, looked up)
chain: MSAIENFDAHTPMMQQYLRLKAQHPEILLFYRMGDFYELFYDDAKRASQLLDISLTKRGASAGEPIPMAGIPYHAVENYLAKLVNQGESVAICEQIGDPATSKGPVERKVVRIVTPGTISDEALLQERQDNLLAAIWQDSKGFGYATLDISSGRFRLSEPADRETMAAELQRTNPAELLYAEDFAEMSLIEGRRGLRRRPLWEFEIDTARQQLNLQFGTRDLVGFGVENAPRGLCAAGCLLQYAKDTQRTTLPHIRSITMEREQDSIIMDAATRRNLEITQNLAGGAENTLASVLDCTVTPMGSRMLKRWLHMPVRDTRVLLERQQTIGALQDFTAGLQPVLRQVGDLERILARLALRTARPRDLARMRHAFQQLPELRAQLETVDSAPVQALREKMGEFAELRDLLERAIIDTPPVLVRDGGVIASGYNEELDEWRALADGATDYLERLEVRERERTGLDTLKVGFNAVHGYYIQISRGQSHLAPINYMRRQTLKNAERYIIPELKEYEDKVLTSKGKALALEKQLYEELFDLLLPHLEALQQSASALAELDVLVNLAERAYTLNYTCPTFIDKPGIRITEGRHPVVEQVLNEPFIANPLNLSPQRRMLIITGPNMGGKSTYMRQTALIALMAYIGSYVPAQKVEIGPIDRIFTRVGAADDLASGRSTFMVEMTETANILHNATEYSLVLMDEIGRGTSTYDGLSLAWACAENLANKIKALTLFATHYFELTQLPEKMEGVANVHLDALEHGDTIAFMHSVQDGAASKSYGLAVAALAGVPKEVIKRARQKLRELESISPNAAATQVDGTQMSLLSVPEETSPAVEALENLDPDSLTPRQALEWIYRLKSLV
On to B4, for which the “stoichiometry N” value in data set [1] was 2 and 4.

B5: MutS-CTD (His6-tagged C-terminal domain of E.coli MutS, residues 801-853) (domain or fragment, UniProt P23909 801-853, looked up)
chain: PNAAATQVDGTQMSLLSVPEETSPAVEALENLDPDSLTPRQALEWIYRLKSLV
Regarding B5, the “stoichiometry N” value in data set [2] was determined as 2; in data set [3], 4.

B6: MutS-CTD^ΔHis6 (MutS-CTD with the N-terminal His6-tag removed by DAPase) (domain or fragment, E.coli, UniProt P23909 801-853, looked up)
chain: PNAAATQVDGTQMSLLSVPEETSPAVEALENLDPDSLTPRQALEWIYRLKSLV
Take B6: the “stoichiometry N” value in data set [3] was found to be 4.

B7: MutS-CTD^D835R (domain or fragment, E.coli, UniProt P23909 801-853, looked up)
chain: PNAAATQVDGTQMSLLSVPEETSPAVEALENLDPRSLTPRQALEWIYRLKSLV
As to B7, the “stoichiometry N” value in data set [3] is 2.
